{"source": "patent US20180291335A1", "about": "“MODIFIED POLYNUCLEOTIDES FOR ALTERING CELL PHENOTYPE” (ModernaTX, Inc., priority 2012, published 2018)", "molecules": {"B1": {"name": "5-methylcytosine and N1-methyl-pseudouridine (1^st set): G-CSF mRNA (SEQ ID NO: 408) fully modified with 5-methylcytosine and N1-methylpseudouridine; repeated sets/tests (nucleic acid)", "chain": "GGGAAAUAAGAGAGAAAAGAAGAGUAAGAAGAAAUAUAAGAGCCACCAUGGCCGGUCCCGCGACCCAAAGCCCCAUGAAACUUAUGGCCCUGCAGUUGCUGCUUUGGCACUCGGCCCUCUGGACAGUCCAAGAAGCGACUCCUCUCGGACCUGCCUCAUCGUUGCCGCAGUCAUUCCUUUUGAAGUGUCUGGAGCAGGUGCGAAAGAUUCAGGGCGAUGGAGCCGCACUCCAAGAGAAGCUCUGCGCGACAUACAAACUUUGCCAUCCCGAGGAGCUCGUACUGCUCGGGCACAGCUUGGGGAUUCCCUGGGCUCCUCUCUCGUCCUGUCCGUCGCAGGCUUUGCAGUUGGCAGGGUGCCUUUCCCAGCUCCACUCCGGUUUGUUCUUGUAUCAGGGACUGCUGCAAGCCCUUGAGGGAAUCUCGCCAGAAUUGGGCCCGACGCUGGACACGUUGCAGCUCGACGUGGCGGAUUUCGCAACAACCAUCUGGCAGCAGAUGGAGGAACUGGGGAUGGCACCCGCGCUGCAGCCCACGCAGGGGGCAAUGCCGGCCUUUGCGUCCGCGUUUCAGCGCAGGGCGGGUGGAGUCCUCGUAGCGAGCCACCUUCAAUCAUUUUUGGAAGUCUCGUACCGGGUGCUGAGACAUCUUGCGCAGCCGUGAAGCGCUGCCUUCUGCGGGGCUUGCCUUCUGGCCAUGCCCUUCUUCUCUCCCUUGCACCUGUACCUCUUGGUCUUUGAAUAAAGCCUGAGUAGGAAG", "modifications": "5-methylcytosine/N1-methylpseudouridine modified; Description of Artificial Sequence: Synthetic Transcript Sequence", "notes": "repeated sets/tests"}}, "key": {"[1]": {"tested_on": "peripheral blood mononuclear cells (PBMC)", "experiment": "In vitro screening in PBMC: G-CSF protein expression by ELISA", "assay_type": "cell-based, human", "outline": "(§1)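 Supernatants harvested, frozen, then assayed by ELISA.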"}, "[2]": {"tested_on": "interferon-alpha (IFN-α)", "experiment": "In vitro screening in PBMC: interferon-alpha induction by ELISA", "assay_type": "cell-based, human", "outline": "as §1"}, "[3]": {"tested_on": "tumor necrosis factor alpha (TNF-α)", "experiment": "In vitro screening in PBMC: tumor necrosis factor alpha induction by ELISA", "assay_type": "cell-based, human", "source_text": "The supernatant was harvested and stored frozen until analyzed by ELISA to determine the G-CSF protein expression, and the induction of the cytokines interferon-alpha (IFN-α) and tumor necrosis factor alpha (TNF-α)."}, "[4]": {"tested_on": "HeLa cells", "experiment": "G-CSF modified mRNA transfected in HeLa cells, G-CSF ELISA", "assay_type": "cell-based, human", "conditions": "HeLa cells, ELISA", "outline": "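Human G-CSF mRNAs bearing various chemical modifications, made with a mutant T7 polymerase, were either transfected into HeLa cells or added to rabbit reticulocyte lysate at 250 ng mRNA. G-CSF protein was quantified by ELISA.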"}, "[5]": {"tested_on": "rabbit reticulysates", "experiment": "G-CSF modified mRNA in rabbit reticulysates, G-CSF ELISA", "assay_type": "biochemical", "conditions": "250 ng of modified mRNA, listed as 5-methylcytosine/N1-methylpseudouridine", "method": "To assess the activity of all our different chemical modifications in the context of a second open reading frame, we replicated experiments previously conducted using luciferase mRNA, with human G-CSF mRNA. […] The mutant T7 polymerase was obtained commercially (Durascribe® T7 Transcription kit (Cat. No. DS010925) (Epicentre®, Madison, Wis.).\nThe modified RNA in Tables 27 and 28 were transfected in vitro in HeLa cells or added to rabbit reticulysates (250 ng of modified mRNA) as indicated. […] In Table 27, “NT” means not tested."}, "[6]": {"tested_on": "interferon-alpha (IFN-alpha)", "experiment": "2′Fluoro chemistries in PBMC: IFN-alpha production by ELISA", "assay_type": "cell-based, human", "conditions": "G-CSF modified mRNA"}, "[7]": {"tested_on": "tumor necrosis factor-alpha (TNF-alpha)", "experiment": "2′Fluoro chemistries in PBMC: TNF-alpha production by ELISA", "assay_type": "cell-based, human", "conditions": "G-CSF modified mRNA"}, "[8]": {"conditions": "PBMC Donor 1, 500 ng G-CSF mRNA"}, "[9]": {"conditions": "PBMC Donor 2, 500 ng G-CSF mRNA"}, "[10]": {"conditions": "PBMC Donor 3, 500 ng G-CSF mRNA"}, "[11]": {"conditions": "PBMC Donor 2, 500 ng G-CSF mRNA, listed as 5-methylcytosine and N1-methylpseudouridine (2nd set)"}, "[12]": {"conditions": "PBMC Donor 2, 500 ng G-CSF mRNA, listed as 5-methylcytosine and N1-methylpseudouridine (4th set)"}, "[13]": {"conditions": "PBMC Donor 3, 500 ng G-CSF mRNA, listed as 5-methylcytosine and N1-methylpseudouridine (2nd set)"}, "[14]": {"conditions": "PBMC Donor 3, 500 ng G-CSF mRNA, listed as 5-methylcytosine and N1-methylpseudouridine (4th set)"}, "[15]": {"conditions": "listed as 5-methylcytidien/N1-methylpseudouridine"}, "[16]": {"conditions": "listed as 5-methylcytidine/N1-methylpseudouridine"}}, "note": "Values joined by “and” are separate entries in the source; they are usually repeats but may differ in a detail not shown here. Equal values may be shown once."}
{"molecule": "B1", "values": [{"measurement": "G-CSF Protein Expression", "setting": "[1]; [8]", "value": "10,232 pg/ml"}, {"measurement": "G-CSF Protein Expression", "setting": "[1]; PBMC Donor 1, 500 ng G-CSF mRNA, listed as 5-methylcytosine and N1-methyl-pseudouridine (2nd set)", "value": "9,564 pg/ml"}, {"measurement": "G-CSF Protein Expression", "setting": "[1]; PBMC Donor 1, 500 ng G-CSF mRNA, listed as 5-methylcytosine and N1-methyl-pseudouridine (4th set)", "value": "9,505 pg/ml"}, {"measurement": "G-CSF Protein Expression", "setting": "[1]; [9]", "value": "7,245 pg/ml"}, {"measurement": "G-CSF Protein Expression", "setting": "[1]; PBMC Donor 2, 500 ng G-CSF mRNA, listed as 5-methylcytosine and N1-methyl-pseudouridine (2nd set)", "value": "8,509 pg/ml"}, {"measurement": "G-CSF Protein Expression", "setting": "[1]; PBMC Donor 2, 500 ng G-CSF mRNA, listed as 5-methylcytosine and N1-methyl-pseudouridine (4th set)", "value": "6,927 pg/ml"}, {"measurement": "G-CSF Protein Expression", "setting": "[1]; [10]", "value": "6,214 pg/ml"}, {"measurement": "G-CSF Protein Expression", "setting": "[1]; PBMC Donor 3, 500 ng G-CSF mRNA, listed as 5-methylcytosine and N1-methyl-pseudouridine (2nd set)", "value": "7,141 pg/ml"}, {"measurement": "G-CSF Protein Expression", "setting": "[1]; PBMC Donor 3, 500 ng G-CSF mRNA, listed as 5-methylcytosine and N1-methyl-pseudouridine (4th set)", "value": "5,405 pg/ml"}, {"measurement": "IFN-α Expression", "setting": "[2]; [8]", "value": 0, "unit": "pg/mL"}, {"measurement": "IFN-α Expression", "setting": "[2]; [9]", "value": 60, "unit": "pg/mL"}, {"measurement": "IFN-α Expression", "setting": "[2]; [11]", "value": 66, "unit": "pg/mL"}, {"measurement": "IFN-α Expression", "setting": "[2]; [12]", "value": 0, "unit": "pg/mL"}, {"measurement": "IFN-α Expression", "setting": "[2]; [10]", "value": 136, "unit": "pg/mL"}, {"measurement": "IFN-α Expression", "setting": "[2]; [13]", "value": 140, "unit": "pg/mL"}, {"measurement": "IFN-α Expression", "setting": "[2]; [14]", "value": 0, "unit": "pg/mL"}, {"measurement": "TNF-α Expression", "setting": "[3]; [8]", "value": 54, "unit": "pg/mL"}, {"measurement": "TNF-α Expression", "setting": "[3]; PBMC Donor 1, 500 ng G-CSF mRNA, listed as 5-methylcytosine and N1-methylpseudouridine (2nd set)", "value": 54, "unit": "pg/mL"}, {"measurement": "TNF-α Expression", "setting": "[3]; PBMC Donor 1, 500 ng G-CSF mRNA, listed as 5-methylcytosine and N1-methylpseudouridine (4th set)", "value": 36, "unit": "pg/mL"}, {"measurement": "TNF-α Expression", "setting": "[3]; [9]", "value": 79, "unit": "pg/mL"}, {"measurement": "TNF-α Expression", "setting": "[3]; [11]", "value": 97, "unit": "pg/mL"}, {"measurement": "TNF-α Expression", "setting": "[3]; [12]", "value": 14, "unit": "pg/mL"}, {"measurement": "TNF-α Expression", "setting": "[3]; [10]", "value": 126, "unit": "pg/mL"}, {"measurement": "TNF-α Expression", "setting": "[3]; [13]", "value": 149, "unit": "pg/mL"}, {"measurement": "TNF-α Expression", "setting": "[3]; [14]", "value": 13, "unit": "pg/mL"}, {"measurement": "G-CSF protein (pg/ml) HeLa cells", "setting": "[4]; G-CSF mRNA, listed as 5-methylcytosine/N1-methylpseudouridine, Control", "value": "1,106,591 pg/ml"}, {"measurement": "G-CSF protein (pg/ml) HeLa cells", "setting": "[4]; G-CSF mRNA, listed as 5-methylcytosine/N1-methylpseudouridine, Test A", "value": "1,534,318 pg/ml"}, {"measurement": "G-CSF protein (pg/ml) HeLa cells", "setting": "[4]; G-CSF mRNA, listed as 5-methylcytosine/N1-methylpseudouridine, Test B", "value": "1,568,636 pg/ml"}, {"measurement": "G-CSF protein (pg/ml) HeLa cells", "setting": "[4]; G-CSF mRNA, listed as 5-methylcytosine/N1-methylpseudouridine, Test D", "value": "1,168,864 pg/ml"}, {"measurement": "G-CSF protein (pg/ml) HeLa cells", "setting": "[4]; combination chemistries, listed as 5-methylcytidine/N1-methylpseudouridine", "value": "747,045 pg/ml and 689,091 pg/ml"}, {"measurement": "G-CSF protein (pg/ml) HeLa cells", "setting": "[4]; combination chemistries, listed as 5-methylcytosine/N1-methylpseudouridine", "value": "1,017,727 pg/ml"}, {"measurement": "G-CSF protein (pg/ml) HeLa cells", "setting": "[4]; combination chemistries, listed as 5-methylcytosine/N1-methylpseudouridine, Control 1", "value": "848,409 pg/ml"}, {"measurement": "G-CSF protein (pg/ml) HeLa cells", "setting": "[4]; combination chemistries, listed as 5-methylcytosine/N1-methylpseudouridine, Control 2", "value": "581,818 pg/ml"}, {"measurement": "G-CSF protein (pg/ml) Rabbit reticulysates cells", "setting": "[5]; Test A", "value": "110,500 pg/ml"}, {"measurement": "G-CSF protein (pg/ml) Rabbit reticulysates cells", "setting": "[5]; Test B", "value": "76,750 pg/ml"}, {"measurement": "G-CSF protein (pg/ml) Rabbit reticulysates cells", "setting": "[5]; Test D", "value": "97,125 pg/ml"}, {"measurement": "IFN-alpha: 3 Donor Average", "setting": "[6]; [15]", "value": 35, "unit": "pg/mL"}, {"measurement": "IFN-alpha: 3 Donor Average", "setting": "[6]; [16]", "value": 31, "unit": "pg/mL"}, {"measurement": "TNF-alpha: 2 Donor Average", "setting": "[7]; [15]", "value": 3, "unit": "pg/mL"}, {"measurement": "TNF-alpha: 2 Donor Average", "setting": "[7]; [16]", "value": 280, "unit": "pg/mL"}]}
